According to patent US6673571B2, “Polypeptides having aminopeptidase activity and nucleic acids encoding same” (Novozymes Biotech, Inc., priority 1997, dated 2004):

Legend:
[1] = Specific activity in alanyl-aminopeptidase units (AAU); assay type: biochemical; conditions: Ala-pNa, pH 7.5, 22° C.
Method: The aminopeptidase I dosages used were based on alanyl-aminopeptidase units (AAU) determined by the hydrolysis of Ala-pNa at pH 7.5. One AAU unit of the aminopeptidase I is defined as the quantity of an enzyme which hydrolyses 1.0 micromole of Ala-pNa per minute in a 9.1 mM solution of Ala-pNa at pH 7.5, 22° C., and ionic strength=0.05.
The specific activity of the purified aminopeptidase I was approximately 12 AAU/mg enzyme. Therefore, a dosage of 0.24 AAU per 200 mg soy protein, for example, corresponded to 0.1 g enzyme per kg soy protein.

[2] = Substrate specificity: initial rates of hydrolysis of para-nitroanilides; assay type: biochemical; conditions: pH 7.5, 25° C.
Method: Stock solutions of 100 mg of each para-nitroanilide per ml of dimethylsulfoxide were diluted with 50 mM sodium phosphate pH 7.5 buffer to concentrations of 2 mg per ml. Where the substrates were incompletely soluble, their suspensions were used (shown with an asterisk in Table 2 below). The reaction of the Sphingomonas capsulata aminopeptidase I with each para-nitroanilide was initiated when a 10 μl aliquot of the enzyme solution in 50 mM sodium phosphate pH 7.0 buffer was added to 190 μl of a substrate solution in a 96 well microtiter plate. Analysis of initial rates of hydrolysis of the para-nitroanilides was monitored at 405 nm and 25° C. in a THERMOmax Microplate Reader (Molecular Devices Corp., Sunnyvale, Calif., USA).

[3] = Temperature stability (residual activity after 20 minutes incubation); assay type: physicochemical; conditions: pH 7.5
Method: The temperature stability of aminopeptidase I was determined by incubating the enzyme for 20 minutes in 50 mM sodium phosphate pH 7.5 buffer at temperatures in the range of 35° C. to 55° C. followed by cooling on ice and measuring the residual activity using Ala-pNA as substrate at pH 7.5 as described above.

gelatin = test: Degree of hydrolysis (DH) in gelatin hydrolysis, OPA method; assay type: biochemical; conditions: 50° C., 18 hours
Method: The aminopeptidase I was added in increased dosage to either a low or a high background of FLAVOURZYME™ and ALCALASE® as performed in Example 7.
Hydrolysis was carried out in 200 μl reactions in Eppendorf tubes. The substrate gelatin (Merck) was dissolved in distilled water at 85° C. for 5 minutes. After cooling to 50° C., the pH was adjusted to 6.5. The final gelatin concentration was adjusted to 2% after the addition of enzymes. The substrate concentration in each reaction was calculated to be 4 mg.
The hydrolysis reactions were performed at 50° C. for 18 hours. Enzymes were inactivated at 85° C. for 5 minutes followed by centrifugation. DH was calculated on the basis of the total protein content of hydrolysate using the OPA method.

soy protein = test: Degree of hydrolysis (DH) in soy protein hydrolysis, OPA method; assay type: biochemical, soy bean; conditions: for DH: 50° C., 18 hours
Method: The degree of hydrolysis (DH) of the soy protein was determined as follows. The DH, defined as described in by Adler-Nissen (1986, Enzymic Hydrolysis of Food Proteins, Elsevier Applied Science Publishers), was determined by reaction of the supernatant with OPA (ortho-phthaldialdehyde, Sigma Chemical Co., St. Louis, Mo.) essentially as described by Church et al., 1983, Journal of Dairy Science 66: 1219-1227 with correction factors as determined by Adler-Nissen, 1979, Agricultural and Food Chemistry 27: 1256-1262.
The aminopeptidase I was added in increasing dosage to either a low-background (1.5% of the substrate protein) or a high background (6% of the substrate protein) of FLAVOURZYME 1000L™ and a dosage of ALCALASE 2.4L® of 1.5% of the substrate protein. The experiments were carried out as described below:
Hydrolysis was carried out on a 10 ml scale at 50° C. for 18 hours. The initial pH was 7 with no pH readjustment during hydrolysis. Inactivation of the enzyme was carried out at 85° C. for 3 minutes in a water bath. The substrate concentration was 2% protein from soy bean meal. The substrate was heat treated in a water bath at 85° C. for 3 minutes. The enzymes used with FLAVOURZYME 1000L™ and ALCALASE 2.4L® described above were crude Sphingomonas capsulata aminopeptidase I powder (see Example 1) and the purified Sphingomonas capsulata aminopeptidase I described in Example 4.

[4] = pH optimum / pH profile with Ala-pNA; assay type: biochemical

B1: Sphingomonas capsulata aminopeptidase I: purified aminopeptidase of 67 kDa from Sphingomonas capsulata IFO 12533; deduced amino acid sequence SEQ ID NO:2 (protein)
chain: MRKTPQGIGLLSALSTSTLALATLILAQPALAQVQPASNSRPMAVPIAHGVPDAQDVPYPGTIGLQIDATDLATGAFRVVETVPVAADAKELILQLPAWLPGEHGNRGPVAELAGITFEAKGQKLAWTRDPVEVNAFHIPLPAGTSEVVARFIHTSPLRDSEGRITVTREMLNVQWEKMSLYPAGHYVRQIKVRPTVSFPQGWTVFTALDGKTQSGAGNTVTWAETDYETLVDSPIFAGLYAARHDLGHNVYFDLVADKPELLAIKPENLAAYRNLADEAVGAFGARHFDHYDFLLALTDRMGSIGLEHHRSSENQQEPKSLTDWAAYDWDRNVIAHEFSHSWDGKYRRSAKLWTPDYRQPMQDNLLWVYEGQTQFWGLVLAARSGVQSKDVVLGSLANYAGTFTQTAGRDWRSVEDTTMDPIFAARKPKPYSSLTRNEDYYTEGALVWLEADQIIRDGTGGKKGLDDFAKAFFGVRDGDWGVLTYEFDDVVKTLNGVYPYDWATFLKTRLQTPGQPVPLGGIERGGYKLEFKDEPNPYDKARMADAKVLSLFNSLGVTLDKDGKVTASRWDGPAFKAGLVSGMQVMAVNGDAYDADKLKGAITNAKTGNPGAGRPIELLVKRDDRFVTLPITYADGLRWPWLVRTAPGTAPTGLDKLLAPHASKLPVGKAAK
For B1, the specific activity [1] was “approximately 12 AAU/mg enzyme”, the “Relative activity (%)” value ([2]; Ala p-nitroanilide) was 100% and the “Relative activity (%)” value ([2]; Asp p-nitroanilide) was 4.5%. The “Relative activity (%)” value ([2]; Glu* p-nitroanilide (suspension)) was 6%, the “Relative activity (%)” value ([2]; Gly* p-nitroanilide (suspension)) was 20% and the “Relative activity (%)” value ([2]; Ile p-nitroanilide) was 0.5%. The “Relative activity (%)” value ([2]; Leu p-nitroanilide) was 18.5%, the “Relative activity (%)” value ([2]; Lys p-nitroanilide) was 6% and the “Relative activity (%)” value ([2]; Met p-nitroanilide) was 24%. The “Relative activity (%)” value ([2]; Phe* p-nitroanilide (suspension)) was 0%, the “Relative activity (%)” value ([2]; Pro p-nitroanilide) was 0% and the “Relative activity (%)” value ([2]; Val p-nitroanilide) was 0.5%. The residual activity ([3]; 45° C.) was “approximately 60%”, the residual activity ([3]; 50° C.) was “completely inactivated” and the temperature stability ([3]; up to 40° C.) was “approximately 100%”. The DH (gelatin; 0.2 U/4 mg gelatin added to low FLAVOURZYME background (2%) + 1% ALCALASE, from DH 38%) was 61%, the DH (gelatin; added to 7% FLAVOURZYME + 1% ALCALASE) was 61% and the “% Relative increase in DH” value (soy protein; 1.5% FLAVOURZYME +67 kDa AP) was 34.8%. For the same molecule, the “% Relative increase in DH” value (soy protein; 1.5% FLAVOURZYME +67 kDa AP versus 6.0% FLAVOURZYME) was −2.2%, the “% Relative increase in DH” value (soy protein; 6.0% FLAVOURZYME +67 kDa AP) was 14.2% and the DH (soy protein; added to high dosage (6%) FLAVOURZYME + 1.5% ALCALASE, from DH 61%) was 71%. The DH (soy protein; added to low dosage (1.5%) FLAVOURZYME + 1.5% ALCALASE, from DH 44%) was 61-62%, the “share of the DH increasing effect of the crude enzyme” value (soy protein; high dosage of FLAVOURZYME, (71−61)/(77−61)×100%) was 63% and the “share of the DH increasing effect of the crude enzyme” value (soy protein; low dosage of FLAVOURZYME, (62−44)/(72−44)×100%) was 64%. For the same molecule, the “effect of adding aminopeptidase I as % of the effect of the crude enzyme” value (soy protein; relative to 1.5% + 0.5% extra FLAVOURZYME, (62−48)/(72−48)×100%) was 58%, the “effect of aminopeptidase I as % of the effect of the crude enzyme” value (soy protein; relative to 6% + 1% extra FLAVOURZYME, (71−63)/(77−63)×100%) was 57% and the Km ([4]; Ala-pNA, pH 7.5) was 2500 µM. The “kinetics of hydrolysis of Ala-pNA” value ([4]; pH 5.5, apparent Km and Vmax negative due to activation by substrate) was “did not follow Michaelis-Menten kinetics”.
